Test results from patent US20250243284A1.

Experiments:
[1] = target: FGFR2 isoform FGFR2-IIIb (FGFR2b), on the surface of cancer cell lines (UniProt P21802); assay: flow cytometry on BT20 cells (TNBC), detected with APC anti-human IgG1
[2] = target: FGFR2 isoform FGFR2-IIIb (FGFR2b), on the surface of cancer cell lines (UniProt P21802); assay: flow cytometry on HCC38 cells (TNBC), detected with APC anti-human IgG1
[3] = target: FGFR2 isoform FGFR2-IIIb (FGFR2b), on the surface of cancer cell lines (UniProt P21802); assay: flow cytometry on HCC1187 cells (TNBC), detected with APC anti-human IgG1
[4] = target: FGFR2 isoform FGFR2-IIIb (FGFR2b), on the surface of cancer cell lines (UniProt P21802); assay: flow cytometry on HCC1569 cells (TNBC), detected with APC anti-human IgG1
[5] = target: FGFR2 isoform FGFR2-IIIb (FGFR2b), on the surface of cancer cell lines (UniProt P21802); assay: flow cytometry on HCC1806 cells (TNBC), detected with APC anti-human IgG1
[6] = target: FGFR2 isoform FGFR2-IIIb (FGFR2b), on the surface of cancer cell lines (UniProt P21802); assay: flow cytometry on HCC1937 cells (TNBC), detected with APC anti-human IgG1
[7] = target: FGFR2 isoform FGFR2-IIIb (FGFR2b), on the surface of cancer cell lines (UniProt P21802); assay: flow cytometry on HARA cells (squamous lung cancer), detected with APC anti-human IgG1
[8] = target: FGFR2 isoform FGFR2-IIIb (FGFR2b), on the surface of cancer cell lines (UniProt P21802); assay: flow cytometry on LC1F cells (squamous lung cancer), detected with APC anti-human IgG1
[9] = target: FGFR2 isoform FGFR2-IIIb (FGFR2b), on the surface of cancer cell lines (UniProt P21802); assay: flow cytometry on SW900 cells (squamous lung cancer), detected with APC anti-human IgG1
[10] = target: FGFR2 isoform FGFR2-IIIb (FGFR2b), on the surface of cancer cell lines (UniProt P21802); assay: flow cytometry on KNS-62 cells (squamous lung cancer), detected with APC anti-human IgG1
[11] = target: FGFR2 isoform FGFR2-IIIb (FGFR2b), on the surface of cancer cell lines (UniProt P21802); assay: flow cytometry on LUDLU1 cells (squamous lung cancer), detected with APC anti-human IgG1
[12] = target: FGFR2 isoform FGFR2-IIIb (FGFR2b), on the surface of cancer cell lines (UniProt P21802); assay: flow cytometry on SW1573 cells (squamous lung cancer), detected with APC anti-human IgG1
[13] = target: FGFR2 isoform FGFR2-IIIb (FGFR2b), on the surface of cancer cell lines (UniProt P21802); assay: flow cytometry on NCIH2170 cells (squamous lung cancer), detected with APC anti-human IgG1
[14] = target: FGFR2 isoform FGFR2-IIIb (FGFR2b), on the surface of cancer cell lines (UniProt P21802); assay: flow cytometry on EPLC-272H cells (squamous lung cancer), detected with APC anti-human IgG1
[15] = target: FGFR2 isoform FGFR2-IIIb (FGFR2b), on the surface of cancer cell lines (UniProt P21802); assay: flow cytometry on SNU16 cells (gastric cancer, positive control), detected with APC anti-human IgG1
[16] = target: FGFR2 isoform FGFR2-IIIb (FGFR2b), on the surface of cancer cell lines (UniProt P21802); assay: flow cytometry on KATOIII cells (gastric cancer, positive control), detected with APC anti-human IgG1
[17] = target: FGFR2 isoform FGFR2-IIIb (FGFR2b), on the surface of cancer cell lines (UniProt P21802); assay: flow cytometry on SNU16-Luc cells (gastric cancer, positive control), detected with APC anti-human IgG1

Mean Fluorescence Intensity by FACS [1]: 252 MFI
Mean Fluorescence Intensity by FACS [2]: 346 MFI
Mean Fluorescence Intensity by FACS [3]: -6 MFI
Mean Fluorescence Intensity by FACS [4]: 1360 MFI
Mean Fluorescence Intensity by FACS [5]: 401 MFI
Mean Fluorescence Intensity by FACS [6]: 690 MFI
Mean Fluorescence Intensity by FACS [7]: 401 MFI
Mean Fluorescence Intensity by FACS [8]: 123 MFI
Mean Fluorescence Intensity by FACS [9]: 10.3 MFI
Mean Fluorescence Intensity by FACS [10]: 572 MFI
Mean Fluorescence Intensity by FACS [11]: 638 MFI
Mean Fluorescence Intensity by FACS [12]: -1.2 MFI
Mean Fluorescence Intensity by FACS [13]: 153 MFI
Mean Fluorescence Intensity by FACS [14]: 759 MFI
Mean Fluorescence Intensity by FACS [15]: 7800 MFI
Mean Fluorescence Intensity by FACS [16]: 20400 MFI
Mean Fluorescence Intensity by FACS [17]: 7960 MFI
B1: bemarituzumab (antibody, human IgG1, kappa, V domains shown)
VH: QVQLVQSGAEVKKPGSSVKVSCKASGYIFTTYNVHWVRQAPGQGLEWIGSIYPDNGDTSYNQNFKGRATITADKSTSTAYMELSSLRSEDTAVYYCARGDFAYWGQGTLVTVSS
VL: DIQMTQSPSSLSASVGDRVTITCKASQGVSNDVAWYQQKPGKAPKLLIYSASYRYTGVPSRFSGSGSGTDFTFTISSLQPEDIATYYCQQHSTTPYTFGQGTKLEIKR
modifications: afucosylated: glycan at Asn297 (EU numbering) lacks core fucose
